# Source: patent US20040223970A1 (published 2004)
# T1: SLC15A2 (Solute carrier family 15 (H+/peptide transporter), member 2) (human, UniProt Q16348 1-729)
# T1 construct: Expressed from its cDNA on stably transfected 3T12 and Calu6 cells (FACS, saporin killing), and endogenous in human prostate sections (IHC); also called SLC15A2 protein; SLCA15A2
# T1 sequence: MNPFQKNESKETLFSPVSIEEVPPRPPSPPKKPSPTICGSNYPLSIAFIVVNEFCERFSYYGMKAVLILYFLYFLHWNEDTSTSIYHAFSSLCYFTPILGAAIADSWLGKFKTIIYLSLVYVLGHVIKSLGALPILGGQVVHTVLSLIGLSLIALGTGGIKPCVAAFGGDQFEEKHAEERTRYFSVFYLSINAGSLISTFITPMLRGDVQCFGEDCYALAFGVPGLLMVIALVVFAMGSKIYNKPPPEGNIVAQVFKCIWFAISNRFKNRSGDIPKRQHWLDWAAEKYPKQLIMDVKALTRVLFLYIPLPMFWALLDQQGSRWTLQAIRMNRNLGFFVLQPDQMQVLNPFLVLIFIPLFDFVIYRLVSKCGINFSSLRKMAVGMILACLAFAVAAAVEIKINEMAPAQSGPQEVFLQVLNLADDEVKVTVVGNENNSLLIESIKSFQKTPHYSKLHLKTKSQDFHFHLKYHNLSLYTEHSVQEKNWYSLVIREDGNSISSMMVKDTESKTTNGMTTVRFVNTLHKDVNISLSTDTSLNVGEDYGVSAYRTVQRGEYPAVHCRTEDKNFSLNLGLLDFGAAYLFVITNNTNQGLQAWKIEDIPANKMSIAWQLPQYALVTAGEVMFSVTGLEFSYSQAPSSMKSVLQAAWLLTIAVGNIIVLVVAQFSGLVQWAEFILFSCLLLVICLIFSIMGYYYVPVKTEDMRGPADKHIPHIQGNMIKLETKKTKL
# B1: PDO5 #810 monoclonal antibody (antibody, V domains shown)
# VH: EVQLQQSGPELVKPGASMKISCKASGYSFTGYTMNWVKQSHGKNLEWIGLINPYNGGINYNQKFKGKATLTVDKSSSTAYMELLSLTSEDSAVYYCTRRAYYGNYGTMDYWGQGTSVTVSS
# VL: ENVLTQSPASMSASPGEKVTMTCSASSSVSYMHWYQQKSTTSPKLWIYDTSNLASGVPGRFSGSGSGNSYSLTISNMEAEDVATYYCFQGSGYPLTFGAGTKLELKR
# notes: also called clone 810; Clone 810 supernatant
# B2: PDO5 #811 monoclonal antibody (antibody, V domains shown)
# VH: QVQLQQPGAELVRPGASVKLSCKASGYTFTSYWLNWVRQRPGQGLEWIGMIDPSDSETHYNQMFKDKATLTVDKSSSTAYMQLSSLTSEDSAVYYCTSQGVPVPFDYWGQGTTLTVSS
# VL: DVVMTQTPLSLPVSLGDQASISCRSSQSLVHSNGNTYLHWYLQKPGQSPKLLIYRVSNRFSGVPDRFSGSGSGTDFTLKISRVEAEDLGVYFCSQSTHVPWTFGGGTKLEIKR
# notes: Mouse monoclonal antibody from a hybridoma, used as hybridoma supernatant; also called clone 811
# Target: T1, SLC15A2 (Solute carrier family 15 …)
# Experiment: FACS, hybridoma supernatant on SLC15A2 expressing cells
row,Binder,binding result
1,B1,binds
2,B2,binds
